# According to patent US20260185070A1, “CRISPR-Cas Effector Polypeptides, Lipid Nanoparticles, and Methods of Use Thereof” (The Regents of the University of California, priority 2022, published 2026):
# B1: GeoCas9: Geobacillus stearothermophilus CRISPR-Cas effector polypeptide, SEQ ID NO: 1; thermostable type II-C Cas9 (protein, listed as Geobacillus stearothermophilus)
# chain: MRYKIGLDIGITSVGWAVMNLDIPRIEDLGVRIFDRAENPQTGESLALPRRLARSARRRLRRRKHRLERIRRLVIREGILTKEELDKLFEEKHEIDVWQLRVEALDRKLNNDELARVLLHLAKRRGFKSNRKSERSNKENSTMLKHIEENRAILSSYRTVGEMIVKDPKFALHKRNKGENYTNTIARDDLEREIRLIFSKQREFGNMSCTEEFENEYITIWASQRPVASKDDIEKKVGFCTFEPKEKRAPKATYTFQSFIAWEHINKLRLISPSGARGLTDEERRLLYEQAFQKNKITYHDIRTLLHLPDDTYFKGIVYDRGESRKQNENIRFLELDAYHQIRKAVDKVYGKGKSSSFLPIDFDTFGYALTLFKDDADIHSYLRNEYEQNGKRMPNLANKVYDNELIEELLNLSFTKFGHLSLKALRSILPYMEQGEVYSSACERAGYTFTGPKKKQKTMLLPNIPPIANPVVMRALTQARKVVNAIIKKYGSPVSIHIELARDLSQTFDERRKTKKEQDENRKKNETAIRQLMEYGLTLNPTGHDIVKFKLWSEQNGRCAYSLQPIEIERLLEPGYVEVDHVIPYSRSLDDSYTNKVLVLTRENREKGNRIPAEYLGVGTERWQQFETFVLTNKQFSKKKRDRLLRLHYDENEETEFKNRNLNDTRYISRFFANFIREHLKFAESDDKQKVYTVNGRVTAHLRSRWEFNKNREESDLHHAVDAVIVACTTPSDIAKVTAFYQRREQNKELAKKTEPHFPQPWPHFADELRARLSKHPKESIKALNLGNYDDQKLESLQPVFVSRMPKRSVTGAAHQETLRRYVGIDERSGKIQTVVKTKLSEIKLDASGHFPMYGKESDPRTYEAIRQRLLEHNNDPKKAFQEPLYKPKKNGEPGPVIRTVKIIDTKNQVIPLNDGKTVAYNSNIVRVDVFEKDGKYYCVPVYTMDIMKGILPNKAIEPNKPYSEWKEMTEDYTFRFSLYPNDLIRIELPREKTVKTAAGEEINVKDVFVYYKTIDSANGGLELISHDHRFSLRGVGSRTLKRFEKYQVDVLGNIYKVRGEKRVGLASSAHSKPGKTIRPLQSTRD
# How the values were obtained:
# NPCs = test: NPC viability with LNPs containing different pegylated lipids; assay type: cell-based, mouse
# Text: Several pegylated lipids, commercial and synthetic, were examiner for their ability to encapsulate and deliver iGeoCas9 RNPs in LNPs (FIG. 48c). […] The reduced toxicity and enhanced delivery efficiency of these 3 PEGylated lipids stems from the pH-sensitive, acid-degradable acetal linker used in their synthesis (FIG. 49): the labile acetal linker could be cleaved in the late endosome stage of LNP delivery with a pH of 5-6, which frees the PEG moiety from the lipid molecules to reduce cytotoxicity and meanwhile destabilizes the endosome to promote the release of RNP into the cytosol. Further optimization of other parameters (e.g., mole and volume ratios of lipids to RNP, and salt concentration in the buffer, FIG. 50b) in LNP assembly established two sets of lipid formulations, i.e., standard formula (with DOTAP as the cationic lipid) and cationic formula (with ADC as the cationic lipid), which encapsulate GeoCas9 RNPs with good particle uniformity (diameter: 170-180 nm, PDI: 0.13-0.17) (FIG. 41b).
# [1] = system: EGFP transgene in a model HEK293T cell line; test: EGFP-to-BFP HDR by LNP co-delivery of RNP and ssDNA template in HEK293T cells; assay type: cell-based, human; conditions: additive in RNP LNPs; in words
# Text: It was investigated if the co-delivery of iGeoCas9 RNPs and ssDNA templates in LNPs could switch EGFP to the blue fluorescent protein (BFP) in a model HEK293T cell line (FIG. 43b). In this cell assay, editing of the chromophore Thr-Tyr-Gly in the EGFP transgene followed by HDR to install a Ser/Thr-His-Gly chromophore turns EGFP into BFP. Four sgRNAs, rEGFP-R1 to R4, were designed to target the coding and non-coding strands in the chromophore region for editing. To avoid possible recutting events after the incorporation of the desired edits, four ssDNA HDR templates were designed to introduce GFP-to-BFP edits together with additional silent mutations in the DNA sequence. […] The HDR level was quantified to be between 20-40% by flow cytometry with 50-75% of non-homologous end-joining (NHEJ) indicated as EGFP knockdown (FIGS. 4b and 51).
# LNP delivery: 4-6.5k cells/well were seeded in 96-well plates 48 hours prior to LNP treatment (HEK293 cells: 4-5k. NPCs: 5-6k, and 16HBEge cells: 6-6.5k). The culture media was refreshed 24 hours after LNP treatment. HEK293T cells were split after 2 additional days with a ratio of […] based on cell confluency. […]
# Cell fluorescence was assayed on an Attune NxT acoustic focusing cytometer (Thermo Fisher Scientific) equipped with 554 nm excitation laser and 585/16 emission filter (tdTomato). […] Data were analyzed using Attune Cytometric Software v5.1.1.
# ccdB toxin gene = test: bacterial dual-plasmid selection assay (Cas9 cleavage of ccdB plasmid, survival rate); assay type: cell-based, E. coli; conditions: for survival rate: sgRNA target sequence #6, PAM ggatGAAA
# Description: A bacterial dual-plasmid selection system was employed for the directed evolution of GeoCas9, which has been successfully employed for engineering other CRISPR Cas effectors. […] To search for a reliable evolution starting point with minimal activity in the E. coli assay, 20 different sgRNAs that target the ccdB gene at the protospacers associated with different PAM sequences were screened (FIG. 46d) and selection under two sets of conditions was performed (37 C or 30 C for 1.5 hours). […] Libraries of GeoCas9 mutants were generated by targeting different domains of the protein for random mutagenesis (FIG. 46a) and then subjected to the selection system under the conditions at 30° C.
# A chloramphenicol-resistant (CAM+) bacterial expression plasmid was built to have the insert gene of GeoCas9 together with its corresponding sgRNA that targets the ccdB gene in the selection plasmid with a PAM of GAAA (g6). Libraries of GeoCas9 mutants were generated by error-prone PCR to introduce random mutagenesis in three different regions (BH-Rec, RuvC-HNH-WED, and WED-PI). The error-prone PCR (with an error rate of 3- to 5-nucleotide mutations per kilobase) was carried out with the Taq DNA polymerase (New England BioLabs) in a reaction containing 2 μl of 10 mM primers, 1.5 μl of 10 mM MnCl2, 2 ng of template plasmid. The plasmid libraries were generated by ligating the mutated fragments with the remaining part of the plasmid through Gibson assembly. The plasmid libraries (-100 ng DNA after clean-up) were electroporated into 50 μl of electronically competent cells made from E. coli strain BW25141(DE3) that contains the selection plasmid encoding the arabinose-inducible ccdB toxin gene. After recovery of the electroporated bacteria in 750 μl of SOB for 1.5 hours at 30° C., the bacteria culture was concentrated; 1% of the total culture was plated onto a Petri agar dish containing only CAM (as control), and the remainder culture was plated on another Petri agar-dish containing both arabinose and CAM. […]
# [2] = protein melting temperature, thermal shift assay; assay type: physicochemical
# Description: Protein melting temperatures were measured using the thermal shift assay (GloMelt™, CAT #33021). The assay was performed on a quantitative PCR system with a temperature increase rate of 2° C./min. The protein melting temperatures were determined as the peak values in the derivative curves of the melting curves.
molecule,measurement,setting,value
DMG-PEG,toxicity / biocompatibility with NPCs,NPCs,detrimental to NPC viability
heparin,effect of anionic polymer additive on editing levels,[1],reduced editing
B1,survival rate,ccdB toxin gene; selection 30° C. for 1.5 hours,< 0.1%
same,survival rate,ccdB toxin gene; selection 37 C for 1.5 hours,2-5%
same,survival in the bacterial assay,"ccdB toxin gene; validation of selected mutant vs wild-type, temperature not stated",< 5%
same,Tm (thermostability),[2],60 °C
